Data set [1] concerns neutrophils in LPS-inflamed lungs. The settings on record: mouse, in vivo, iv. As for the experimental part:
Mice received IV LPS as a model of sepsis/ARDS and were injected five hours later with liposomes (approx. 5 mg/kg). Lung uptake provides a measure of tropism to marginated neutrophils. D5=5 DBCO per protein (IgG) on the tag. D5=5 DBCO per IgG on the tag. D20=20 per IgG on the tag. 25% chol=25% (moles cholesterol/total moles of lipid) of the lipids in liposomes was cholesterol. 25% cholesterol=25% (moles cholesterol/total moles of lipid) of the lipids in liposomes was cholesterol.
Radiolabeled clone 1A8 anti-Ly6G antibody was administered to determine the location and concentration of neutrophils in naïve mice and mice exposed to intravenous (IV) lipopolysaccharides (LPS) (FIG. 1A).
Previous work has traced the neutrophil response to bacteria in the lungs, determining that pulmonary neutrophils pursue and engulf active bacteria following either intravenous infection or infection of the airspace in the lungs. We injected heat-inactivated, oxidized, and fixed E. coli in naïve and IV-LPS-injured mice.
Neither nanoparticle was functionalized with antibodies or other affinity tags. The protein component of each particle was labeled with ^125I for tracing in biodistributions assessed 30 minutes after IV administration of nanoparticles.
Variants of LDNG structure, crosslinked protein NP structure, and NP structure based on charged protein interactions were traced in naïve control and IV-LPS-injured mice. As examples of highly crystalline protein-based NPs based on site-specific protein interactions (rather than site-indiscriminate interactions leading to crosslinker, gelation, or charge-based protein NPs), we also traced viruses in naïve and LPS-treated mice. Adding in liposomes and polystyrene NPs as example nanostructures not based on protein, we undertook a study to evaluate how aspects of NP structure including size, composition, surface chemistry, and crystallinity impact NP affinity for LPS-injured lungs.

The subject of the next data set is ex vivo human lungs. From the text: Finally, fluorescent or ^125I-labeled LDNGs were infused via arterial catheter into ex vivo human lungs excluded from organ donation due to conditions (including edema and injury) resembling those found in ARDS patients. Immediately prior to LDNG administration, tissue dye was infused via the same catheter to stain regions of the lungs directly perfused by the chosen branch of the pulmonary artery (FIG. 7C). After infusion of LDNGs, phosphate buffered saline infusion rinsed away unbound particles. Perfused regions of the lungs were dissected and divided into ˜1 g segments, divided into regions deemed to have high, medium, or low levels of staining with tissue dye. For lungs receiving fluorescent LDNGs, well-perfused and poorly-perfused regions were selected for sectioning and fluorescent imaging. Fluorescent signal from LDNGs was clearly detectable in sections of well-perfused tissue, but not poorly-perfused tissue (FIG. 7D). In experiments with ^125I-labeled LDNGs, ^131I-labeled ferritin was concurrently infused (i.e. a mix of ferritin and LDNGs was infused) as an internal control particle shown to have no affinity for injured mouse lungs. For LDNGs and ferritin infused into the same lungs via the same branch of the pulmonary artery, LDNGs retained in the lungs at 52.15% initial dose and ferritin retained at 9.27% initial dose (FIG. 7E). […]

ferritin: in data set [1], the “LPS:naïve lung uptake ratio” value was determined as 1.15 and the “Lung uptake, percent of initial dose” value is given as 0.68 % initial dose. The “Retained in the lungs” value with ex vivo human lungs was determined as 9.27 % initial dose.
“bovine albumin: isolated radiolabeled protein”: the “Lung uptake, percent of initial dose” value in data set [1] is on record as 1.38 % initial dose.
Still for that read-out and setting: the figure for lysozyme: isolated radiolabeled protein is 1.34 % initial dose; for “transferrin: isolated radiolabeled protein” it is 1.45 % initial dose.

The values above are taken from patent US20230001009A1, “NANOPARTICLE COMPOSITIONS AND METHODS OF USE” (The Trustees of the University of Pennsylvania, priority 2019, published 2023).
